Measurements as given in patent US10385103B2, “Cell-permeable (ICP)-SOCS3 recombinant protein and uses thereof” (CELLIVERY THERAPEUTICS, INC., priority 2014, dated 2019).

Columns and labels:
TNF-α = assay: LPS/IFN-γ-induced cytokine secretion in peritoneal macrophages (cytometric bead array), TNF-α; assay type: cell-based, C3H/HeJ mice; settings: 10 μM protein; IFN-γ and LPS
Protocol: Peritoneal macrophages were obtained from C3H/HeJ mice (Doo-Yeol Biotech Co. Ltd. Korea) Peritoneal macrophages were incubated with 10 μM SOCS3 recombinant proteins (1:HS3, 2:HM165S3, 3:HM165S3A and 4:HM165S3B, respectively) for 1 hr at 37° C. and then stimulated them with LPS (Lipopolysaccharide)(500 ng/ml) and/or IFN-γ (100 U/ml) without removing iCP-SOCS3 proteins for 3, 6, or 9 hrs. The culture media were collected, and the extracellular levels of cytokine (TNF-α, IL-6) were measured by a cytometric bead array (BD Pharmingen, San Diego, Calif., USA) according to the manufacturer's instructions.

RAW 264.7 cells = assay: Cell-to-cell protein transfer (flow cytometry); assay type: cell-based
Protocol: For this, RAW 264.7 cells were treated with 5 μM of FITC-labeled HM165S3B, HTS3B for 2 hour and washed with PBS two times. Thereafter, they were seeded on PANC-1 cell, incubated for 2 hours and treated with 20 ng/ml of IFN-γ for 15 minutes, followed by Western blotting in the same manner as in Example 8-1. And Cell-to-cell protein transfer was assessed by flow cytometry.
For this, RAW 264.7 cells were treated with 10 uM of FITC-labeled iCP-SOCS3 (HM165S3B) protein for 1 hour. Thereafter, these cells were co-cultured with PerCP-Cy5.5-CD 14-stained RAW 264.7 cells for 2 hours. Cell-to-cell protein transfer was assessed by flow cytometry, scoring for CD14/FITC double-positive cells.

HepG2 cells = assay: Cell-permeability of FITC-labeled SOCS3 recombinant proteins in hepatocellular carcinoma cells (flow cytometry); assay type: cell-based, human; settings: 10 μM FITC-labeled protein, 1 hr, 37° C.
Protocol: HepG2 cells (ATCC, Manassas, Va., USA) were seeded in a 12 well plate, grown to 90% confluence. Cells were treated with 10 μM FITC-labeled iCP-SOCS3 recombinant proteins and cultivated for 1 hr at 37° C.
After cultivation, the cells were treated with proteinase K (10 ug/mL, SIGMA, USA) and washed three times with ice-cold PBS (Phosphate-buffered saline, Hyclone, USA) to remove surface-bound proteins, and internalized proteins were measured by flow cytometry (FlowJo cytometric analysis software, Guava, Millipore, Darmstadt, Germany). Untreated cells (gray) and equimolar concentration of unconjugated FITC (FITC only, green)-treated cells were served as control (FIG. 57).

normal cells = assay: Inhibition of cell cycle progression (PI staining, flow cytometry); assay type: cell-based; settings: 10 uM, 8 hrs
Protocol: HCCs and normal cells were treated with 10 uM protein (Non-CP-SOCS3 (HS3B) and iCP-SOSC3 (HM165S3B)) for 8 hrs. After the treatment, cells were washed twice with cold PBS and re-suspended in 1 ml cold PBS, fixed in cold 70% ethanol, washed with cold PBS twice and re-suspended in PI master mix (PI 10 ug/ml (SIGMA, USA), 50 ug/ml RNase A (Invitrogen, USA) in staining buffer) at a final cell density of 2×10^5 cell/ml. The cell mixtures were incubated 30 min in the dark at 4° C. Flow cytometric analysis was immediately performed using a guava easyCyte™ 8 Instrument (Merck Millipore, Darmstadt, Germany).

[1] = system: tumor tissues (Hep3B CDX, HepG2 CDX); assay: Biomarker expression in xenograft tumor tissues (RT-PCR, Western blotting, IHC); assay type: in vivo, Balb/c nu/nu mice
Protocol: Tumor tissues were finely minced using a homogenizer according to the manufacturer's protocol of Hybrid-R (geneall, Korea), and then mRNA was isolated therefrom. 1 ug of mRNA thus separated was used to synthesize cDNA using an Accupower RT Premix (Bioneer, Korea). PCR was performed using 2 ul of cDNA and the primers of Table 45. PCR was performed using an Accupower PCR Premix (Bioneer, Korea) for 30 cycles consisting of denaturing (95° C.), annealing (60° C.), and extending (72° C.) for 45 seconds each.
Immunohistochemistry (IHC) Tissue samples were fixed in 4% Paraformaldehyde (Duksan, South Korea) for 3 days, dehydrated, cleared with xylene and embedded in Paraplast. Sections (6 μm thick) of tumor were placed onto poly-L-lysine coated slides. To block endogenous peroxidase activity, sections were incubated for 15 min with 3% H2O2 in methanol. After washing three times with PBS, slides were incubated for 30 min with blocking solution (5% fetal bovine serum in PBS). Mouse anti-Bax antibody (sc-7480, Santa Cruz Biotechnology, SantaCruz, Calif., USA) and rabbit anti-VEGF (ab46154, Abcam, Cambridge, UK) were diluted 1:1000 (to protein concentration 0.1 μg/ml) in blocking solution, applied to sections, and incubated at 4° C. for 24 hrs. After washing three times with PBS, sections were incubated with biotinylated mouse and rabbit IgG (Vector Laboratories, Burlingame, Calif., USA) at a 1:1000 dilution for 1 hr at room temperature, then incubated with avidin-biotinylated peroxidase complex using a Vectorstain ABC Kit (Vector Laboratories, Burlingame, Calif., USA) for 30 min at room temperature. After the slides are reacted with oxidized 3, 3-diaminobenzidine as a chromogen, they were counterstained with Harris hematoxylin (Sigma-Aldrich, USA). Permanently mounted slides were observed and photographed using a microscope equipped with a digital imaging system (ECLIPSE Ti, Nikon, Japan).
mRNA levels were analyzed using the tumor tissues removed at 2 weeks (Hep3B CDX, day 35) or 3 weeks (HepG2 CDX, day 42) after termination of drug administration to analyze changes in expressions of major biomarker genes by iCP-SOCS3.
Further, tumors removed at 2 weeks (Hep3B CDX, day 35) or 3 weeks (HepG2 CDX, day 42) after termination of drug administration were used to perform Western blotting and IHC, and increase or decrease in the expressions of cancer activity regulating factors by iCP-SOCS3 was observed.

[2] = day 35 (Hep3B CDX) or day 42 (HepG2 CDX)

B1: HM165S3B: His-tagged recombinant protein of aMTD165, human SOCS3 and solubilization domain B; prototype improved cell-permeable SOCS3 (protein)
chain: MGSSHHHHHHSSGLVPRGSHMALAVPVALAIVPVTHSKFPAAGMETSRPLDTSLRLKTFSSKSEYQLVVNAVRKLQESGFYWSAVTGGEANLLLSAEPAGTFLIRDSSDQRHFFTLSVKTQSGTKNLRIQCEGGSFSLQSDPRSTQPVPRFDCVLKLVHHYMETPPPGAPSFPSPPTEPSSEVPEQPSAQPLPGSPPRRAYYIYSGGEKIPLVLSRPLSSNVATLQHLCRKTVNGHLDSYEKVTQLPGPIREFLDQYDAPLGSMAEQSDKDVKYYTLEEIQKHKDSKSTWVILHHKVYDLTKFLEEHPGGEEVLGEQAGGDATENFEDVGHSTDARELSKTYIIGELHPDDRSKIAKPSETL
modifications: Amino acid sequence of HM165S3B
effect on TNF-α secretion (TNF-α): showed the greatest inhibitory effect on cytokine secretion | cell-to-cell protein transfer (CD14/FITC double-positive cells) (RAW 264.7 cells; 10 uM FITC-labeled protein 1 hour, co-culture with CD14-stained RAW 264.7 cells 2 hours): Efficient cell-to-cell transfer | cell-to-cell protein transfer (RAW 264.7 cells; RAW 264.7 treated with 5 μM FITC-labeled protein 2 hour, seeded on PANC-1 cell 2 hours): efficient cell-to-cell transfer | transduction into HepG2 cells (HepG2 cells): promoted the transduction into cultured HCC HepG2 cells | cell cycle progression in normal cells (normal cells): did not inhibit cell cycle progression | expression of Bax in tumor tissues ([1]; Western blotting and IHC): increased | expression of Bcl-2 in tumor tissues ([1]; Western blotting and IHC): decreased | expression of VEGF in tumor tissues ([1]; Western blotting and IHC): remarkably decreased | expression of p21 in tumor tissues ([1]; Western blotting and IHC): increased | expression of GOLPH2 in tumor tissues [1, 2]: remarkably reduced | mRNA expressions of Bax, cyclinD1, cyclinE, PCNA, VEGF, FAK-related genes in tumor tissues [1, 2]: significantly regulated
